Results taken from the domain aggregation screens of Martell et al. (2025).

Assay: soluble fraction after stress (log2 fold change); higher = more stays soluble; pooled small domains, quantitative proteomics
Conditions: stress: 75 degC
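Further: 20 min heating vs room temperature control held 20 min.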

| Sequence | soluble fraction (log2) |
| --- | --- |
| HMLIDSEILKKTNKITIFLIYAFFSEYLINKEKKKILIGEYIKLSKDFLTIEEVKYFNHLLDDISK | -0.131 |
| HMLIDSNNYFFYKVKPKEGFYSLQKKLGVNRSEIEKHNPSLINEVLKEGMILKIPKYLLNFDLN | -1.08 |
| HMLILTWNYPYEYPMMMRSFLQEIGISRTFLAHIKSNGELLINGRHEIVLKTLQPGDVLTMVIPPSG | -2.13 |
| HMLINLGPRIRKERRSKGISQSDFSKNLGISASYLNLLENGRRTLTVPLLIKIGNELNLSLKDL | -0.125 |
| HMLISAESVKRRLEMIRHLILLGDYEDVTAQVIKLNPAANEYKLTPIIEELNGGKYQEALEKINSYLSKF | -0.839 |
| HMLISKNLLGFTIKNTSGVTFGTLKDIMWLPSNDVYVIDNNGKEYLIPVISEIVKSINYDKGSITIFP | -0.4 |
| HMLKASEVLPYVFTDKFFIDDLNLKQDQILGFLEYIDSKLPSQKLLQVSQQFQLIDFLINESKNYKNQ | -1.68 |
| HMLKDININVTGLDQISNAKLINNLNLLKMNNLFFLDEKKIKKILNSNNLIEKFFIFKKYPSTLDIKVYKT | 0.177 |
| HMLKHNLLSELSRIEGVGAVKRKALMDKFGTVENIKRASEEELSEVAGIGPTLARTIKEQMNKDE | -0.133 |
| HMLKKRKPMSGVGVIVKGMLTGTVTGTDGSYALKARPNDELSFSFLGYKTQEVFVGSKSTIDITLVDEA | -0.111 |
| HMLKLEEIQPNATVRGILPDALITVVNVKWFGSEALELTYKDTSGRVANQLLFRDDQPRLEIVE | -1.98 |
| HMLKLEPYTINEINSLQELYDLGNVRALETLISIYKDKNQVYDTRFYVLDILSKYDNPLIQEALEESITN | -1.39 |
| HMLKLPVEYLNLKYQLMHATSLDKPNNLMKLDEKLGKIIDVYYDDLPVDEQRVVDILQSKLYSY | -0.489 |
| HMLKLYILTDGKNYVMDDPIHPGRVMYSTSPVNAKKFTFKQARALLNNKSKKLSWIRSFNMVDDSSGEKI | -1.44 |
| HMLKREDEVIVVAGKDKGKRGTITQLVGDDRVIVAGVNMVKRHTKPNPNLGQPGGIVEREASLHISNV | 0.244 |
| HMLKVHPRDQEENRLLLLKGERLYEESTGDTRVMIDMWLRKFEEALNSRSRENIEDARRELKEQLAELDN | -0.185 |
| HMLLAPLRLGAAPDIKAQAPLATILARHNGEMEAKDLWQRFGGEIDAFYLQLKTEVAHGWIVEPEPA | -3.01 |
| HMLLELINLQVKILENEELKIIGKVIDLENEKNNLLVIELLKDQKKVLVPFVKEIVPLIDIKNNFIMINPP | -0.903 |
| HMLLFNVADIVKRAKRVLNFKTDAELAAYLGVSRPTLSNWIARNGIDFPLLLEKLKEIDYNWLLVGKGKPE | -2.74 |
| HMLLGPDALTNRELDVLALLERRLSNKEIGALLYISPRTVKRHTINIYQKLHVNNRRAAVAQAKALGLMPD | -1.9 |
| HMLLKIRPDLDGNEIMKLLNIAAGPNVGKAYEHLLELRLEHGPLGKERAEQELMNWWSARSQ | -0.898 |
| HMLLNSLIDTLAAEKATVVPGTEVFKLYDTYGFPWELTEEIASERGFTIDHEGFEAAMKEQRERAREARV | -0.104 |
| HMLLNTSQLKELYNRYDKKNSSLISIPFSAISDEPLKFYKWYAALFQIELNVKAFADVDSKQIIIYKGTK | -3.37 |
| HMLLRSEDAIELGKSQLEDALAPYKIETLDTGTVQQLLDSLKLNSLESLYQEIGLGNRMSTIIAHRLLGE | -0.216 |
| HMLLSFYGTYGNVKLTGKELEDLQKEFPFDYQARIDRLSAYMESSGRKYHSHFATIRSWAQDDAKKN | -2 |
| HMLLSYDIAEYIEKYIHEHGLQPGDRLPTERELAAQLDITRVSVRQGYKRLLDQGVIRSENGYYVNPPR | -1.68 |

| Sequence | soluble fraction (log2) |
| --- | --- |
| HMLLTDGLERRIDGDKNLHIRISLPMLVKGQIKLAKSGNNESTVKGIFKIESYPGSHPRDVVTEIIEG | -0.236 |
| HMLLTHPKRVFTYELIMELVWNEDYTFYSKKAVSNHMSNLRKKLKVTPDALDYIKNIVGVGYKFEA | -1.11 |
| HMLMKKTITHEIELLEFLKQIFPQSSTNKLRKMLSNGRIKINSEIVHKAKYKLQENDTFELLDNPT | -2.61 |
| HMLNEIMDTINKYISDKRNNKVAQNILSAALDELNSQIRVGLKDLNPHSIEEFKENVINSPYIEFEQG | -0.0112 |
| HMLNEWIDYIDEHIKEELTAKNLATVFGYSERHFRNVFQIYYDIKLNDYIRRRKLYFAAQELKKG | -1.27 |
| HMLNMSVYDKQLLRAVENNPFISQRELARELHWNVDRVKYYMKKWKDKGGLRHVGSSHKGYWEVLVRIEEK | -0.891 |
| HMLNNVDIHKLSEDLLLYKIKIDIKLKNIEDAISTIDYFSNKFPNSDLMPYVIYEKKLIDNI | -2.59 |
| HMLNPLLLPFVEAEDFQVKLEILAAMEGKVGEEDLDILYEALDLPKMTGNIEEQIHSIKQYIEMRK | -1.18 |
| HMLNPVEKLLLLSQLYIGRLKGSFVVKEKHHKSTILGEVRELSPEEITLKTDEGYRLIRVDDILTIQL | -4.44 |
| HMLNSLDATQRLKLNKDGVVVFNFGKYVDQSVIDIFKKEKGYYNWMMSKDFSQQVKNIITKIYQEEIIG | -1.08 |
| HMLNTLGADIRALRKARGLTLAELAQTLGRSVGWLSQVERDMSEPGINDLRDLARALDVSISSLFG | -1.8 |
| HMLNWINSDVLERFNSLTKEKQKAIVADTETRLNGLSQARFKVAKSSSNERLIAEFAIEINEAIMRAAAL | -2.11 |
| HMLPADETEARVLNVLGSEPLHVDEIRNQADLPIEKISATLAMMELKGMVRQVGGMNYVAMR | 0.0378 |
| HMLPANGEAIYHYLASGAIKGVGPVTAQRIVDKFGEDTFDVLENNPLWLAEIKGITRKTAENIGAAFAAQF | 0.631 |
| HMLPDAESFSYEVPYTKGDGGTYNYEGKIKAQNADAARDEIIRQAQVYFQMNPQFTPDYPSTTITSLD | 0.14 |
| HMLPDDDMLLNILTKLLIDKQFVINSHEIFDFIIKRANRSYEEMFILVNKLDQLSLEKKRQLTIPLIKEI | -0.881 |
| HMLPDLQESIDELLNIVDQRLNTSFEELVSGVNTTEKAIAFFLALLETIKWGFIKAEQTNNENKINIEKNY | -0.146 |
| HMLPDPIYEAFMMASDLGIVVRNGPQYAYPDKETGEVLYKALGREKFLQLMKDNDGLLTSIETEIRSM | -1.61 |
| HMLPKTVTLIDPVSGVAKTVTWVPALTLYSARRKAGLNRVPNTATIDRGGRELTGKRGSTLQPGDVVRW | -0.664 |
| HMLPPLGDQELELLRFITESAPITVREAAESYGKDRGLARTTVLTMMERLRAKGYLTRSESGAANEYSP | -0.64 |
| HMLPPVFLTIDANENVIVRKDGEPVQTLNKFELGAFARSQAENSAEQPVVLAADKSIKYEVVMEVI | 0.192 |
| HMLPRLVLSPGTEVLATVMGKYENGMSLVKISSHLFAMDLPSRVQVGDSLRMTFLHQDARPTFALA | -1.11 |
| HMLPSDLDEGNRRRQLIEGAARLFRAKGFDGTSTRDIAAAAGMRSGSPFYHFDSKNALLYVVVQEGM | -0.0127 |
| HMLPSWLPTDAWEAFLEARVAMKARPTERAKGLLLGELSKLVSQGQDARAVLEQSVQRGWRGLFPVK | -1.76 |
| HMLPSWPGVSEFEVARLLRRGRARGSLTLDEVIDVVRDAELTSELIAGIRSSLRAEGIDFEET | -0.731 |
| HMLPTLSLSVKIYKGEGDIALDLEEMVKAFDQLNFGSYPFSEKGVHGTNIVIRGNDKKHMEEAEDKVRSLT | -0.438 |

| Sequence | soluble fraction (log2) |
| --- | --- |
| HMLPVDALFAQHPALIVTLGQTEKLKHGAAIRDWHFADGTYRVYSETGEFLLLGTVKGQILTTVKSFFE | -2.24 |
| HMLQARKFTHIQGYEFEAEFLRTNGEFVELQDPQGRKKWFPISNFIQDDKDFIKEQAGNLSS | -0.309 |
| HMLQEFTLELATAVVQEFRDQPGALINALHKLQETFGYVDEAAMPVLARLFNLSRAEVHGVASFYHDFRRS | -1.67 |
| HMLQEHVLEIRHPSWNDAFRIIGHDGWRTQTGAHAAILSYDEEELNIKWDSWGYERFIRDEKGIFRLAA | -0.11 |
| HMLQESDPEALRGIVKSVLVDHAAVAEEYRAGKQSVLQFLVGQGMKASKGAGNPGLIRDLMLEEL | -0.237 |
| HMLQLSDAISRVESFLQGQNRNLAFSIDENTERSVVTVLDSDTGDVIRQIPSEELLVLAKRIQELQQD | -0.0104 |
| HMLQMSDSSALEAILDEVLGSEMGQKALSDIEAGNMKAMGFIIGQSMKLSKGQANPQIINKLLQQRLK | -0.326 |
| HMLQNLGFKPDLEIRHFPGIVLPDIHRSKKTISLLYTLLAGDIKKLPENEINYKDSKIISSYLWTLLRYH | 0.103 |
| HMLQSGSDYLIEQVRMYTATGQREYMDNYFEELNTTRRRENALEYFAEHYGDNDAFTLLKSAMTTSQN | -0.258 |
| HMLQVRRILQLLADGYSKRQISQQTAVSRNTIDSYEDRFHLTGKSYQELLSMEDGELSGIVYP | -1.11 |
| HMLQVSDENFVVELVQKVLLDNPSSVQEYKNGKESVLQFLIGQAMKASKGTANPQIVKEIMLKLL | -0.68 |
| HMLQYSQEIEEAQKILQNLGLYKGEIDGINGVNTKSAIKEFQRKSGLIIDGILGPNTTSALSKGAESYITV | 0.0721 |
| HMLRISEEVWALVEKTLREDWSPEQVSGKLKASGISVSHERIYQHIYADKRVGGTLWTHLRR | -2.47 |
| HMLRLLEIIAGNEVSKEINSQVIKYYKALKNKKIEEINNLTPSYNKLIISFDLKKKNFREMKKIIEDISIN | -0.136 |
| HMLRPEEMIYHEMLDAILDRRLEPGMKLVEEDLAKTFGVSRARIRATFLQLAHDKLINLVPNRGAFVAEP | -2 |
| HMLRRNQVQSQVIPRENGSYVVELQLRDDVDSILRLELTAATEAMARDLADRFRQDPEGVYTRLLSALY | -2.22 |
| HMLRTEYLTVNYAKASEVAELVTASGFLSSRGSITVDERTNTLLLQDTATNIDEVRFMLEQLD | -0.366 |
| HMLSADLLDKIQRIDSLEQQGKYAQAEKEARALLSDPSITPSERASVQNILSSIARKKAAQAQ | -0.064 |
| HMLSAGTTEQRLAMLQYQWEKQSETYSALGPNNGVVTLGQIRNTMAKIAELAGFKDAAQFWMPVPMDYDV | -0.217 |
| HMLSAPMPGTVLEVHVKEGQRVREGQTLVVMEAMKMEHRVQAPRAGVVTKLHYSEGDRVDVGAILVEIG | -1.34 |
| HMLSAQEIPVEDIATRDFVLAEDVVSAKKVLLLPKGVDLSWFGSAKKRLVQRLKSEGVTHIRVFA | -2.06 |
| HMLSFSEAERAVLSLLNRRPDLSAKALASELAVSARTVERYLQSLQQKGKLLRVGAKKGGYWQV | -0.842 |
| HMLSGNLTADAHVHRGLQALSDGRNEDALVDFTKATEVQADFAEAWNKRATVNYLLGRYDAAVLDIQKTLE | 0.257 |
| HMLSLDDAAFERYDLTMREREVLLLLLNRLTYEEIAERLFISTNTVKTHVGNVYKKTGVSSRKELVSK | -1.26 |
